Results published in patent publication US20260151521A1.

Tests used:
[1] = molecular target: human PD-L1 (full-length, expressed on cells) (human) (UniProt Q9NZQ7); experiment: flow cytometry, dose titration of staining on untreated LOX-IMVI cells
[2] = molecular target: human PD-L1 (full-length, expressed on cells) (human) (UniProt Q9NZQ7); experiment: flow cytometry, dose titration of staining on LOX-IMVI cells treated overnight with 100 ng/mL hIFNγ
[3] = molecular target: human PD-L1 (full-length, expressed on cells) (human) (UniProt Q9NZQ7); experiment: flow cytometry, ex vivo LOX-IMVI tumor cells (Tumor 2) ~3 weeks post implantation in nude mice, antibody at 20 ug/mL
[4] = molecular target: human PD-L1 (full-length, expressed on cells) (human) (UniProt Q9NZQ7); experiment: flow cytometry, ex vivo MC38-cOVA/eGFP-mPD-L1-/-hPD-L1Tg tumor cells (Tumor 1) ~3 weeks post implantation in nude mice, antibody at 20 ug/mL
[5] = molecular target: human PD-L1 (full-length, expressed on cells) (human) (UniProt Q9NZQ7); experiment: flow cytometry, dose titration of staining on MC38-cOVA/eGFP-mPD-L1-/-hPD-L1Tg cells treated overnight with 100 ng/mL mIFNγ
[6] = molecular target: human PD-L1 (full-length, expressed on cells) (human) (UniProt Q9NZQ7); experiment: flow cytometry, dose titration of staining on untreated MC38-cOVA/eGFP-mPD-L1-/-hPD-L1Tg cells
[7] = molecular target: human PD-L1 (full-length, expressed on cells) (human) (UniProt Q9NZQ7); experiment: flow cytometry, ex vivo LOX-IMVI tumor cells (Tumor 1) ~3 weeks post implantation in nude mice, antibody at 20 ug/mL
[8] = molecular target: human PD-L1 (full-length, expressed on cells) (human) (UniProt Q9NZQ7); experiment: flow cytometry, dose titration on LOX-IMVI and MC38-cOVA/eGFP-mPD-L1-/-hPD-L1Tg cells with or without IFNgamma
[9] = molecular target: human PD-L1 (full-length, expressed on cells) (human) (UniProt Q9NZQ7); experiment: flow cytometry, ex vivo MC38-cOVA/eGFP-mPD-L1-/-hPD-L1Tg tumor cells (Tumor 2) ~3 weeks post implantation in nude mice, antibody at 20 ug/mL
[10] = molecular target: human PD-L1 (full-length, expressed on cells) (human) (UniProt Q9NZQ7); experiment: immunoreactivity, Study 3: 20 ng 89Zr antibody on 15x10^6 MC38-cOVA/eGFP-mPD-L1-/-hPD-L1Tg cells, gamma counter
[11] = molecular target: human PD-L1 (full-length, expressed on cells) (human) (UniProt Q9NZQ7); experiment: immunoreactivity, Study 3: 20 ng 89Zr antibody on 30x10^6 LOX-IMVI cells (endogenous human PD-L1), gamma counter
[12] = molecular target: human PD-L1 (full-length, expressed on cells) (human) (UniProt Q9NZQ7); experiment: immunoreactivity, Study 3: MC38-cOVA/eGFP-mPD-L1-/-hPD-L1Tg cells, cell-bound activity against standards
[13] = molecular target: human PD-L1 (full-length, expressed on cells) (human) (UniProt Q9NZQ7); experiment: immunoreactivity, Study 3: LOX-IMVI cells (endogenous human PD-L1), cell-bound activity against standards
[14] = molecular target: human PD-L1 (full-length, expressed on cells) (human) (UniProt Q9NZQ7); experiment: immunoreactivity, Study 1: MC38-cOVA/eGFP-mPD-L1-/-hPD-L1Tg cells, cell-bound activity against standards
[15] = molecular target: human PD-L1 (full-length, expressed on cells) (human) (UniProt Q9NZQ7); experiment: immunoreactivity, Study 1: 20 ng 89Zr antibody on 15x10^6 MC38-cOVA/eGFP-mPD-L1-/-hPD-L1Tg cells, gamma counter
[16] = molecular target: human PD-L1 (full-length, expressed on cells) (human) (UniProt Q9NZQ7); experiment: immunoreactivity on MC38/mPD-L1-/-/hPD-L1 cells

Chain of UniProt Q9NZQ7 (Q9NZQ7 19-290): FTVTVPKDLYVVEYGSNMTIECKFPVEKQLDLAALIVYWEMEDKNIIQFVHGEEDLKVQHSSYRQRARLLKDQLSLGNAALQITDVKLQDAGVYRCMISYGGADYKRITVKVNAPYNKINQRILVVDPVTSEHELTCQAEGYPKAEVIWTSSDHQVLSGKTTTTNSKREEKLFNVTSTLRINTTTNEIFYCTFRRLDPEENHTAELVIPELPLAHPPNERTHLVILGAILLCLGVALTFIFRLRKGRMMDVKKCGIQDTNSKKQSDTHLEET

Substance	EC50 (read off the curve) [1] [nM]	EC50 (read off the curve) [2] [nM]	Mean fluorescence intensity [3]	Mean fluorescence intensity [4]	EC50 (read off the curve) [5] [nM]	EC50 (read off the curve) [6] [nM]	Mean fluorescence intensity [7]	antibody concentration at which median fluorescence intensity reached the plateau [8] [nM]	Mean fluorescence intensity [9]	cell pellet activity [10]	cell pellet activity [11]	Percent IR (immunoreactivity) [12] [%]	Percent IR (immunoreactivity) [13] [%]	Percent IR (immunoreactivity) [14] [%]	cell pellet activity [15]	Immunoreactivity [16] [%]
fluorochrome directly conjugated anti-human PD-L1 antibody (eBioscience, clone MIH1)	20	20	12100	49600	30	30	8480	150	51400	–	–	–	–	–	–	–
89Zr labeled DFO-conjugated isotype control antibody	–	–	–	–	–	–	–	–	–	68	65.4	0.7	0.7	0.5	29.6	8.8
